How the values were obtained:
Experiment in all cases: two-hybrid library CCNG1;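 note: natural log of median RNA to DNA barcode read ratio; higher means stronger binding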
P7SHb = target: T1, P7SHb
T1 chain: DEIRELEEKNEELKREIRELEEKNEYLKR

P1SHb = target: T2, P1SHb
T2 chain: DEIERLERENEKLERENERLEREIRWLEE

P12SHb = target: T3, P12SHb
T3 chain: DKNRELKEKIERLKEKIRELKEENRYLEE

P8SHb = target: T4, P8SHb
T4 chain: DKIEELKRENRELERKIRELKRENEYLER

P3SHb = target: T5, P3SHb
T5 chain: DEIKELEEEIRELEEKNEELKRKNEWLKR

P2SHb = target: T6, P2SHb
T6 chain: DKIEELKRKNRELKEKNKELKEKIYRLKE

P6SHb = target: T7, P6SHb
T7 chain: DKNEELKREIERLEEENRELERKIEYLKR

P5SHb = target: T8, P5SHb
T8 chain: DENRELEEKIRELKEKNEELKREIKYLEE

P4SHb = target: T9, P4SHb
T9 chain: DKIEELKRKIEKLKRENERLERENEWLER

P9SHb = target: T10, P9SHb
T10 chain: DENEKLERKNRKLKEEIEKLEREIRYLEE

- interaction score (P7SHb): -0.593
- interaction score (P1SHb): -1.47
- interaction score (P12SHb): -0.206
- interaction score (P8SHb): -0.747
- interaction score (P3SHb): 0.41
- interaction score (P2SHb): -1.12
- interaction score (P6SHb): 0.412
- interaction score (P5SHb): 0.0253
- interaction score (P4SHb): -0.198
- interaction score (P9SHb): 1.48
Binder: DKNRELKEKIERLKEKIRELKEENRYLEE [P12SHb]
